Test results as given in PMC7832040 (Science translational medicine, 2020).

What was measured:
[1] = target: mannose receptor CD206, human, recombinant (human) (UniProt P22897); assay: MST
murine CD206 (murine) = murine CD206 (murine) (UniProt Q61830); assay: MST
[2] = target: endogenous CD206 in human M2-polarized macrophages (human (endogenous in M2-polarized macrophages)) (UniProt P22897); assay: cellular thermal shift assay
[3] = target: endogenous CD206 in murine M2-polarized macrophages (BMDMs) (mouse (endogenous in M2 BMDMs)) (UniProt Q61830); assay: cellular thermal shift assay
CD206 = target: T1, CD206 (Homo sapiens, UniProt P22897); conditions: xenotransplanted tumors; ref [39]–[41]; cited from earlier work
T1 sequence (P22897 19-1456): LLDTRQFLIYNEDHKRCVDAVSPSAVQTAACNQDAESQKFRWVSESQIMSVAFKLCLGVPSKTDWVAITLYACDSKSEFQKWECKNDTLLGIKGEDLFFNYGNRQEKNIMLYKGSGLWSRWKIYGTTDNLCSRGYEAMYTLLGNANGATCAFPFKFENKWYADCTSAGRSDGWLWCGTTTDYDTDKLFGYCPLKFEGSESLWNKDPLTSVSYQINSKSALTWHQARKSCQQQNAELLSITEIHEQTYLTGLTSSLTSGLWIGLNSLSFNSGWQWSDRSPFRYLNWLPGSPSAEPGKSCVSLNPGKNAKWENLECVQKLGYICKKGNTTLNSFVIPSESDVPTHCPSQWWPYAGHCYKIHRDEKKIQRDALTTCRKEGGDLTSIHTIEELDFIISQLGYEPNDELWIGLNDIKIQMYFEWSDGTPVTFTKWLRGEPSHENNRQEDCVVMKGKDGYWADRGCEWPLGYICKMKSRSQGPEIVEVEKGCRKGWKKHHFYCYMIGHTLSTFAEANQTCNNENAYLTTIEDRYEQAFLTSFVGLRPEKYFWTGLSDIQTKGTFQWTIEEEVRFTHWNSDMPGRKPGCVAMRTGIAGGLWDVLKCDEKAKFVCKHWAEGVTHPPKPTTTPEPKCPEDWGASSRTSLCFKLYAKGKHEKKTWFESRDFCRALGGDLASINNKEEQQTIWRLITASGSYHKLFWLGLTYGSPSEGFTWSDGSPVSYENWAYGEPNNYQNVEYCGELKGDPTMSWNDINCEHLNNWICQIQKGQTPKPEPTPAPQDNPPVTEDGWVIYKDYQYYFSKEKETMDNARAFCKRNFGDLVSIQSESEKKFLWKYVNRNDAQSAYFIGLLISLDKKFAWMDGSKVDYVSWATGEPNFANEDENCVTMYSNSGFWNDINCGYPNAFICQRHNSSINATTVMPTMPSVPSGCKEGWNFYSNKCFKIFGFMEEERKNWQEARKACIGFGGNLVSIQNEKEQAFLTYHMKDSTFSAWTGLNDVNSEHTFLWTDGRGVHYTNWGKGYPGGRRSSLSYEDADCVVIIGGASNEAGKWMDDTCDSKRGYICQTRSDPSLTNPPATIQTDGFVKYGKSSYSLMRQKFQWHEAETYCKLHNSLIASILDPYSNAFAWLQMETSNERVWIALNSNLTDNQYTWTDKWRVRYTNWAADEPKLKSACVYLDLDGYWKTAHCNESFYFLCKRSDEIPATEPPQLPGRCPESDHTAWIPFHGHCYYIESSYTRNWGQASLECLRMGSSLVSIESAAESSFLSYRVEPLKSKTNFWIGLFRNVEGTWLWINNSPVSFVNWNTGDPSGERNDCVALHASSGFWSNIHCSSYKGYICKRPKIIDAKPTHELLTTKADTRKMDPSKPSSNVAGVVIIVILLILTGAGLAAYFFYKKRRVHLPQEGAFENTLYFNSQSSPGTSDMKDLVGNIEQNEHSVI

endogenous CD206 in murine M2-polarized macrophages (BMDMs) (mouse (endogenous in M2 BMDMs)), sequence (Q61830 20-1456): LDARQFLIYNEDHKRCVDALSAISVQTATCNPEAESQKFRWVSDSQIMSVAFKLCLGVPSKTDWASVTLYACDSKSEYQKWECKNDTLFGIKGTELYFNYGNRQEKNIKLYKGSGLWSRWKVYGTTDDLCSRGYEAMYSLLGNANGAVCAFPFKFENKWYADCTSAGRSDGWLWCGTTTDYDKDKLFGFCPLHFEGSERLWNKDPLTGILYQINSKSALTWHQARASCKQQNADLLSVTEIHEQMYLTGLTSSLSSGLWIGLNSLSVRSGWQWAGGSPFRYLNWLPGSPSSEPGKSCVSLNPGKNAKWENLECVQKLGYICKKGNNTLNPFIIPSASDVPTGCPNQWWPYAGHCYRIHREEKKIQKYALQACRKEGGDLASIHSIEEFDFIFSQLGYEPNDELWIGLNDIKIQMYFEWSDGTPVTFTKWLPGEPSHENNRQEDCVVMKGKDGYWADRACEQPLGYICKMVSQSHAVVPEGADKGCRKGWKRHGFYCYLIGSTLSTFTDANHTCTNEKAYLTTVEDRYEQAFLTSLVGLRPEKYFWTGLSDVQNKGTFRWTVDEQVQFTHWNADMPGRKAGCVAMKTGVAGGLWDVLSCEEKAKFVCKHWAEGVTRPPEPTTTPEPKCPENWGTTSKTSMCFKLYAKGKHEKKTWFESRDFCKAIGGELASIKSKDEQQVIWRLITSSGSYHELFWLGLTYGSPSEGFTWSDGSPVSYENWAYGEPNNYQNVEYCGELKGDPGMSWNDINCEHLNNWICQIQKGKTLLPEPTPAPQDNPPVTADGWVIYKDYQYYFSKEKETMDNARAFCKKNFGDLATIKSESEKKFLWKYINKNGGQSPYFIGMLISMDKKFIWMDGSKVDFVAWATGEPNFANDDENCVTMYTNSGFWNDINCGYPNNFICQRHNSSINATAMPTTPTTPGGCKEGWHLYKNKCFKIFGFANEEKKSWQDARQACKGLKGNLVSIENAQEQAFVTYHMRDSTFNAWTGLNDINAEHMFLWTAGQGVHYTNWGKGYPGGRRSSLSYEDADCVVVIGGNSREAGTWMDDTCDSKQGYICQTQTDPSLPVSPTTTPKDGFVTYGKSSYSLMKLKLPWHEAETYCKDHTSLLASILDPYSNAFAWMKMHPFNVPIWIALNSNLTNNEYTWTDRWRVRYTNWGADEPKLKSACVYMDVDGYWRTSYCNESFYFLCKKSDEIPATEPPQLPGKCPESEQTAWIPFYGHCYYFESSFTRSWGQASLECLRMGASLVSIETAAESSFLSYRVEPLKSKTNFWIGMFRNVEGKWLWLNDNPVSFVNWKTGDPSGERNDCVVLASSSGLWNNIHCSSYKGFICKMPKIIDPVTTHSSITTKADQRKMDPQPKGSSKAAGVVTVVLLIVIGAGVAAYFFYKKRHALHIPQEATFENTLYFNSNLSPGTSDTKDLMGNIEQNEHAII
murine CD206 (murine), sequence (Q61830 20-1456): as above

Kd [1] [µM]	Kd (murine CD206 (murine)) [µM]	thermostability shift of CD206 (CETSA) [2] [°]	thermostability shift of CD206 (CETSA) [3] [°]	Substance	delivery of nanoparticles to tumors (CD206)
8	19	> 4	> 4	RP-182 (peptide)	
				CSPGAKVRC [UNO]	able to carry drug-loaded nanoparticles targeting CD206 into xenotransplanted tumors
